From article PMC4254048

Target: UB (ubiquitin)
Assay: SEC-MALS
Conditions: reference: unphosphorylated PARKIN; sites S65

PARKIN (from UniProt O60260) p-PARKIN
other: mass increase on p-UB addition: same; reference ~7
